Targets include FIKK13_1; FIKK13_4_Y10A; FIKK13_4_S7A; FIKK13_6; FIKK13_4_S7A_Y10A.
What all share (test): SPR
For orientation: SPR reads the build-up and loss of mass on a sensor chip optically.

In general, Kd refers to the equilibrium constant for the complex coming apart. Higher therefore signals weaker binding.

B1: Bio-His-FIKK13 (enzyme)
chain: MKKKENTQKLLNFVYYKIYLTFIVGLLYIFLLNILINHGGSKNDVRFTNIRCVRIFSENIKNINEISKKIYLYNIKNEKDDIICRDSLDNINEINNKINYTSVKGEDIIILKEGKYKNGCSDINFLDRKDVNKNDDQSFRNYHKTNNNKDENVNMKSYVYNWELGQKSLIKMLDYADNFYFNGVKYSDWKLTSMRRFNLNNNVLKDHKTYKSIINSKKGNDMKKVKLFIKKIPIDIWVEQFNLMKKYEGEYLIDKENYVMEAVSLAFLNEYYPGITPKFYKILYESDKNNMNEKNCKKYKFQDLNELNDILTKKLENNINGNIVLISEFFGENVFDYIKRKKNTLFVVSDISNEDKKKILYNSLNLLMRLHNAGLTHLDLSPDNMLISPKNYEMRLCDLSQSTPIYTNKLRHKEKLNSIKPFESFEPCIGKIEYIPPECWKIVWKYKMNNIKNPIEYLKNISNQEERKKYYYDVSCADKYMLGIFFIWMWNNGFIWKCSDPIQDKIFEIFMKSNMDLNKFIMTKSWPHELNNLINKLLHMEHRKTVKLSDLSRHPWWSSKN
For the molecule B1, the Kd was above 10 µM in the experiment with FIKK13_1; above 10 µM with FIKK13_4_Y10A; 3.4 µM with FIKK13_4_S7A; above 10 µM in the experiment with FIKK13_6; above 10 µM with FIKK13_4_S7A_Y10A.

These data come from doi:10.1101/2024.02.22.581535 (2024).
